Measured values reported in US20220154204A1, “ENHANCING DROUGHT, SALINITY AND COLD TOLERANCE IN PLANTS AND TREES” (The Regents of the University of California, priority 2019, published 2022).

T1: OST1/SnRK2.6 (Arabidopsis thaliana, UniProt Q940H6)
T1 construct: made in house; host or cells: E. coli
T1 sequence (Q940H6 1-362): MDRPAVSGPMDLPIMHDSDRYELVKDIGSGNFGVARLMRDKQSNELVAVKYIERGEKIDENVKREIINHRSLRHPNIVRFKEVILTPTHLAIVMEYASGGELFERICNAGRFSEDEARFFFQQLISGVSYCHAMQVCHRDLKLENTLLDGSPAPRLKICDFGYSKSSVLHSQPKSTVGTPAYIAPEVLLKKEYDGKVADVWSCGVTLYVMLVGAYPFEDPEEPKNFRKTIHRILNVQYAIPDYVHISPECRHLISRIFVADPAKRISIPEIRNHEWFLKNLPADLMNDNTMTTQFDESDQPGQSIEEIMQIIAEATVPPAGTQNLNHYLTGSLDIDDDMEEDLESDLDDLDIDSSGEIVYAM

B1: MPK12: MAP kinase of ABA signalling (protein)
chain: MSGESSSGSTEHCIKVVPTHGGRYVQYNVYGQLFEVSRKYVPPIRPIGRGACGIVCAAVNSVTGEKVAIKKIGNAFDNIIDAKRTLREIKLLRHMDHENVITIKDIVRPPQRDIFNDVYIVYELMDTDLQRILRSNQTLTSDQCRFLVYQLLRGLKYVHSANILHRDLRPSNVLLNSKNELKIGDFGLARTTSDTDFMTEYVVTRWYRAPELLLNCSEYTAAIDIWSVGCILGEIMTGQPLFPGKDYVHQLRLITELVGSPDNSSLGFLRSDNARRYVRQLPRYPKQQFAARFPKMPTTAIDLLERMLVFDPNRRISVDEALGHAYLSPHHDVAKEPVCSTPFSFDFEHPSCTEEHIKELIYKESVKFNPDH
B2: CPKδ: calcium-dependent protein kinase of ABA signalling (protein, UniProt Q38872 2-544, looked up)
Calcium-dependent protein …: GNSCRGSFKDKIYEGNHSRPEENSKSTTTTVSSVHSPTTDQDFSKQNTNPALVIPVKEPIMRRNVDNQSYYVLGHKTPNIRDLYTLSRKLGQGQFGTTYLCTDIATGVDYACKSISKRKLISKEDVEDVRREIQIMHHLAGHKNIVTIKGAYEDPLYVHIVMELCAGGELFDRIIHRGHYSERKAAELTKIIVGVVEACHSLGVMHRDLKPENFLLVNKDDDFSLKAIDFGLSVFFKPGQIFKDVVGSPYYVAPEVLLKHYGPEADVWTAGVILYILLSGVPPFWAETQQGIFDAVLKGYIDFDTDPWPVISDSAKDLIRKMLCSSPSERLTAHEVLRHPWICENGVAPDRALDPAVLSRLKQFSAMNKLKKMALKVIAESLSEEEIAGLRAMFEAMDTDNSGAITFDELKAGLRRYGSTLKDTEIRDLMEAADVDNSGTIDYSEFIAATIHLNKLEREEHLVSAFQYFDKDGSGYITIDELQQSCIEHGMTDVFLEDIIKEVDQDNDGRIDYEEFVAMMQKGNAGVGRRTMKNSLNISMRDV

Target: T1, OST1/SnRK2.6
Test: In vitro phosphorylation assay of CIAP-dephosphorylated GST-OST1/SnRK2.6 with other protein kinases
Type: biochemical
Details: GST-OST1/SnRK2.6 dephosphorylated by CIAP, [γ-32P]-ATP
Protocol: We investigated phosphorylation of purified recombinant GST-tagged OST1/SnRK2.6 protein kinase after dephosphorylation in vitro. To test whether OST1/SnRK2.6 could be re-activated by autophosphorylation, after dephosphorylation, the GST-OST1/SnRK2.6 protein bound on glutathione sepharose 4B resin was incubated with calf intestinal alkaline phosphatase (CIAP), and [γ-^32P]-ATP was added to the reaction after wash out of CIAP. […] Therefore, another unknown protein kinase may be required for reversible ABA signal transduction.
10 μg GST-OST1/SnRK2.6 proteins were bound to glutathione sepharose 4B beads and incubated with 30 U CIAP for 2 hr at room temperature. […]
a, Seeds of amiR-HsMYO wild-type (control line) or amiR-ax1117 mutant were sowed on ½ MS medium containing 2 μM ABA, or 0.02% EtOH as control, for germination assays. Representative images showing seed germination after 6 days. b, The percentage of seedlings showing green cotyledons was analyzed. […] In-gel kinase assays were performed using histone type III-S as a substrate. e, SnRK2 band intensities as shown in (d) were measured using ImageJ, n=3 experiments, error bars show +/−s.e.m. f, Recombinant GST-OST1/SnRK2.6 protein was dephosphorylated by alkaline phosphatase in vitro and used for in vitro phosphorylation assays after incubation with CPK6, CPK23 or MPK12 protein kinases. […]

Molecule	phosphorylation of OST1/SnRK2.6 after dephosphorylation
B1	did not phosphorylate
B2	did not phosphorylate
